B1: PaB670087 scFv (scFv, V domains shown)
VH: EVQLLESGGGLVQPGGSLRLSCAASGFTFSSYAMNWVRQAPGKGLEWVSTISYHGSHISYADHHKHRFTISRDNSKNTLYLQMNSLRAEDTAVYYCARINNDPMDVWGQGTLVTVSS
VL: SIELTQPPSVSVSPGQTASITCSGDNLGKKYVQWYQQKPGQSPVLVIYDDSNRPSGIPERFSGSNSGNTATLTISGTQAMDEADYYCQTWDGNPTTGETNVFGGGTKLTVL
notes: purified scFv; also called ZZ1ODR-B05
B2: PaB670093 scFv (scFv, V domains shown)
VH: B1 VH with G55H, S56H, H57L, Y60H, H63S, H64V, H66G
VL: B1 VL
notes: purified scFv; also called ZZ1ODR-H04
B3: PaB670089 scFv (scFv, V domains shown)
VH: B1 VH with Y60H, H64V, K65H, H66G
VL: B1 VL
notes: purified scFv; also called ZZ1ODR-C05
B4: PaB670091 scFv (scFv, V domains shown)
VH: EVQLLESGGGLVQPGGSLRLSCAASGFTFSSYAMNWVRQAPGKGLEWVSTISHSGHLIHHHHSVKGRFTISRDNSKNTLYLQMNSLRAEDTAVYYCARINNDPMDVWGQGTLVTVSS
VL: B1 VL
notes: purified scFv; also called ZZ1ODR-G02
B5: PaB670092 scFv (scFv, V domains shown)
VH: B1 VH with A61H, H63S, K65H, H66G
VL: B1 VL
notes: purified scFv; also called ZZ1ODR-G11
B6: PaB670097 scFv (scFv, V domains shown)
VH: B4 VH with S52H, I58H, H59S, H60Y, S63H
VL: B1 VL
notes: purified scFv; also called ZZ1ODT-E11
B7: PaB670095 scFv (scFv, V domains shown)
VH: B1 VH with S56H, H63S, K65H
VL: B1 VL
notes: purified scFv; also called ZZ1ODS-H05
B8: PaB670094 scFv (scFv, V domains shown)
VH: B1 VH with S56H, Y60H, H66G
VL: B1 VL
notes: purified scFv; also called ZZ1ODS-B08
B9: PaB670088 scFv (scFv, V domains shown)
VH: B1 VH with H54S, S56H, H57L, S59H, K65H, H66G
VL: B1 VL
notes: purified scFv; also called ZZ1ODR-B11
B10: PaB670090 scFv (scFv, V domains shown)
VH: B1 VH with S56H, Y60H, H64V
VL: B1 VL
notes: purified scFv; also called ZZ1ODR-F02

Residue numbers refer to the chain shown, from its start.

In one assay the target is T1, recombinant biotinylated human PAR2 extracellular domain (residues 1-75), N-terminal AviTag, C-terminal Flag … (human, UniProt P55085 26-75, biotin on the AviTag (enzymatic biotinylation)).
T1 construct: also called Bio-human-PAR2 ECD; human PAR2 ECD; not shown: N-terminal AviTag (Avidity LLC); C-terminal Flag and poly Histidine tags
T1 sequence (P55085 26-75): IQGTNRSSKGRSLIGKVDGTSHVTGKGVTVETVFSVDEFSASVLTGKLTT
In words: HTRF competition with Par0067 IgG, scFv. The procedure:
(§1) 5 μl/well of the appropriate pH 4.44 nM Par0067 IgG solution was added to all wells of the relevant assay plate (pH 7.4 and pH 6.0).
(§2) Test scFv Preparation/Addition: [0172] a) For parallel single point HTS of crude un-purified bacterial lysate scFv samples at both pH 7.4 and pH 6.0 samples were first pre-diluted to 40% of their neat concentration using either pH 7.4 or pH 6.0 assay buffer as appropriate. Subsequently 5 μl of 40% pre-diluted sample was then transferred into the appropriate assay (pH 7.4 or pH 6.0) in order to give a final assay sample concentration of 10.0% (in the 20 μl final assay volume). The parent Par0067 scFv was included in all HTS experiments as a control as were specific pH dependent antibodies as those became available (for benchmarking). […] Duplicate 11 point 1:3 serial dilutions then were prepared on 384 well polypropylene Greiner plates in each of the two assay buffers (pH 7.4 & 6.0). 5 μl per well of each serial dilution was transferred from the relevant pH scFv dilution plate to the corresponding assay plate (pH 7.4 and pH 6.0). 5 μl of the appropriate pH assay buffer was added to the total and non-specific wells. The parent Par0067 purified scFv was included in all multipoint dose response IC₅₀ experiments as a control as were specific pH dependent purified scFv as those became available (for benchmarking).
(§3) For multipoint dose response curves % Specific Binding values were plotted versus test purified antibody concentration (scFv or IgG). IC₅₀ values were determined via a sigmoidal dose response inhibition variable slope curve fit (4 parameter logistic equation) using Graphpad Prism Software.
For orientation: Time-resolved FRET reads energy transfer from a long-lived donor to a nearby acceptor.
For B1, the “Fold IC50 (pH 6.0 v pH 7.4)” value worked out at 3.2 fold and the “Fold IC50 pH 7.4 (Variant v Par0067)” value is 12.4 fold.
The corresponding values for B2 are 3.2 fold and 5.6 fold.
Consider B3, for which the “Fold IC50 (pH 6.0 v pH 7.4)” value was 4.5 fold and the “Fold IC50 pH 7.4 (Variant v Par0067)” value is 9.1 fold.
On to B4, for which the “Fold IC50 (pH 6.0 v pH 7.4)” value came out at 3.9 fold and the “Fold IC50 pH 7.4 (Variant v Par0067)” value came out at 7.6 fold.
B5: the “Fold IC50 (pH 6.0 v pH 7.4)” value came to 4.7 fold and the “Fold IC50 pH 7.4 (Variant v Par0067)” value turned out to be 12.5 fold.
Consider B6, for which the “Fold IC50 (pH 6.0 v pH 7.4)” value was 3.6 fold and the “Fold IC50 pH 7.4 (Variant v Par0067)” value worked out at 6.6 fold.
Turning to B7, the “Fold IC50 (pH 6.0 v pH 7.4)” value was 5.7 fold and the “Fold IC50 pH 7.4 (Variant v Par0067)” value worked out at 6.1 fold.
As to B8, the “Fold IC50 (pH 6.0 v pH 7.4)” value amounted to 3.3 fold and the “Fold IC50 pH 7.4 (Variant v Par0067)” value came to 22 fold.
The corresponding values for B9 are 3.8 fold and 9 fold.
Take B10: the “Fold IC50 (pH 6.0 v pH 7.4)” value was determined as 3.8 fold and the “Fold IC50 pH 7.4 (Variant v Par0067)” value stood at 6.8 fold.

The target in a further assay is T1, recombinant biotinylated human PAR2 …. In words: HTRF competition with Par0067 IgG, pH 6.0, scFv. The method, then:
as §1, §2, §3
In the case of B1, the IC50 – broadly, the concentration needed to halve the response being measured – turned out to be 131 nM.
Same read-out and setting: next, B2: 58.7 nM; B3: 134 nM; B4: 98.9 nM.
On the same count and under the same terms, next, B5: 194 nM; B6: 77.9 nM; B7: 113 nM.
The same measure, in the same setting: the same measure for B8: 237 nM; for B9: 115 nM.
With B10, the IC50 is 85.5 nM.

The target is the same in a further assay. The assay is described as follows: HTRF competition with Par0067 IgG, pH 7.4, scFv. The procedure: as §1, §2, §3
With B1, the IC50 stood at 40.9 nM.
Take B2: the IC50 was 18.6 nM.
Regarding B3, the IC50 amounted to 29.9 nM.
Same read-out and setting: the same measure for B4: 25.2 nM; for B5: 41.1 nM; for B6: 21.8 nM.
Same read-out and setting: next, B7: 20 nM.
Regarding B8, the IC50 is 72.5 nM.
Consider B9, for which the IC50 stood at 29.8 nM.
As to B10, the IC50 was found to be 22.6 nM.

Source of the values: patent publication US20180305450A1 (AstraZeneca / MedImmune, published 2018).
